Reverse-splicing fitness data for 83 variants are collected here from the RNAGym collection of RNA variant scans (doi:10.1093/molbev/msab373).

First the molecules themselves.
B1: Azoarcus group I ribozyme (parent)
chain: GUGCCUUGCGCCGGGAAACCACGCAAGGGAUGGUGUCAAAUUCGGCGAAACCUAAGCGCCCGCCCGGGCGUAUGGCAACGCCGAGCCAAGCUUCGGCGCCUGCGCCGAUGAAGGUGUAGAGACUAGACGGCACCCACCUAAGGCAAACGCUAUGGUGAAGGCAUAGUCCAGGGAGUGGCGAAAGUCACACAAACCGG

The variants in the data set derive from B1. The experiment in a line: reverse-splicing fitness (ratio to wild type); higher = more active; in vitro selection; Mg2+ level not given. The method in brief:
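An in vitro group I ribozyme library with randomized positions was T7-transcribed and gel-purified. In triplicate, 10 pmol RNA in EPPS pH 7.5 was reacted with 50 pmoles of a 30-nt RNA substrate for 1 h at 37 °C across several added MgCl2 levels (1–48 mM), then stopped with EDTA. Products were reverse transcribed from a substrate-complementary primer, PCR-amplified and sequenced (HiSeq 4000). Fitness is a variant's read proportion after selection over that before, normalised to wild type.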
In the case of C82A A111C A120G A145G C150A C169G U176A, the reverse-splicing fitness turned out to be 0.017. To C82A A111C A120G A145G C150A C169G U176G belongs 0.00656; to C82A A111C A120G A145G C150A C169G U176C, 0.0274. Consider C82A A111C A120G A145C C150A C169A U176G, for which the reverse-splicing fitness is 0.00603. To C82A A111C A120G A145C C150A C169A U176C belongs 0.00778. With C82A A111C A120G A145C C150A C169A U176A, the reverse-splicing fitness was 0.01. To C82A A111C A120G A145C C169G U176A belongs 0.0239. To C82A A111C A120G A145C C169G U176G belongs 0.00472; to C82A A111C A120G A145C C169G U176C, 0.0156. To C82A A111C A120G A145C C150A U176G belongs 0.00559; to C82A A111C A120G A145C C150A U176C, 0.0105. C82A A111C A120G A145C C150A U176A: the reverse-splicing fitness was found to be 0.0103. To C82A A111C A120G A145U C150A C169G belongs 0.00777.

In the case of C82A A111C A120G A145U C150A C169A, the reverse-splicing fitness came to 0.00893. To C82A A111C A120C A145U C150U C169U U176G belongs 0.00824; to C82A A111C A120C A145U C150U C169U U176A, 0.0135; to C82A A111C A120C A145U C150U C169U U176C, 0.0133. To C82A A111C A120C A145G C150U U176A belongs 0.0119. Regarding C82A A111C A120C A145G C150U U176G, the reverse-splicing fitness came to 0.00852. To C82A A111C A120C A145G C150U U176C belongs 0.0208; to C82A A111C A120C C150A C169A U176A, 0.0196; to C82A A111C A120C C150A C169A U176C, 0.0181. Under C82A A111C A120C C150A C169A U176G stands 0.00827. To C82A A111C A120C C150A U176G belongs 0.00759.

Consider C82A A111C A120C C150A U176C, for which the reverse-splicing fitness stood at 0.0178. Consider C82A A111C A120C C150A U176A, for which the reverse-splicing fitness was 0.0118.

As for C82A A111C A120G A145C C169U U176G, the reverse-splicing fitness stood at 0.00467. Under C82A A111C A120G A145C C169U U176A stands 0.0138. Regarding C82A A111C A120G A145C C169U U176C, the reverse-splicing fitness stood at 0.00921.

On to C82A A111C A120C C150A C169U U176A, for which the reverse-splicing fitness came out at 0.0173. To C82A A111C A120C C150A C169U U176C belongs 0.015; to C82A A111C A120C C150A C169U U176G, 0.00868. To C82A A111C A120C A145G C150A C169A U176C belongs 0.019; to C82A A111C A120C A145G C150A C169A U176A, 0.0209. To C82A A111C A120C A145G C150A C169A U176G belongs 0.009; to C82A A111C A120G A145G C169U, 0.00908; to C82A A111C A120G A145G C169G, 0.00963. Regarding C82A A111C A120G A145G C169A, the reverse-splicing fitness was found to be 0.0107. As to C82A A111C A120C A145U C150G C169U U176A, the reverse-splicing fitness stood at 0.00763. To C82A A111C A120C A145U C150G C169U U176C belongs 0.0101; to C82A A111C A120C A145U C150G C169U U176G, 0.00684. To C82A A111C A120C A145G C150U belongs 0.0241; to C82A A111C A120C A145G C150A, 0.0108; to C82A A111C A120C A145G C150G, 0.00852.

Take C82A A111C A120C A145U C169A U176C: the reverse-splicing fitness came to 0.0162. Under C82A A111C A120C A145U C169A U176G stands 0.00807; under C82A A111C A120C A145U C169A U176A, 0.0132; under C82A A111C A120G A145G C150G C169A U176C, 0.0113. As for C82A A111C A120G A145G C150G C169A U176A, the reverse-splicing fitness was 0.0133. Regarding C82A A111C A120G A145G C150G C169A U176G, the reverse-splicing fitness worked out at 0.00771. Under C82A A111C A120G A145C C150A C169U U176A stands 0.0142; under C82A A111C A120G A145C C150A C169U U176C, 0.00893. Regarding C82A A111C A120G A145C C150A C169U U176G, the reverse-splicing fitness is 0.00495. For C82A A111C A120C A145C U176C, the reverse-splicing fitness turned out to be 0.0149.

Consider C82A A111C A120C A145C U176A, for which the reverse-splicing fitness was 0.0123.

With C82A A111C A120C A145C U176G, the reverse-splicing fitness was 0.00663. Consider C82A A111C A120G A145U, for which the reverse-splicing fitness was 0.0152. For the variant C82A A111C A120G A145C, the reverse-splicing fitness stood at 0.0129.

Consider C82A A111C A120G A145G, for which the reverse-splicing fitness was determined as 0.0153. As to C82A A111C A120G A145C C150G C169G U176A, the reverse-splicing fitness was 0.00836. Under C82A A111C A120G A145C C150G C169G U176G stands 0.00475; under C82A A111C A120G A145C C150G C169G U176C, 0.00766. To C82A A111C A120C A145G C169A belongs 0.00886. Under C82A A111C A120C A145G C169G stands 0.00846; under C82A A111C A120C A145G C169U, 0.0141; under C82A A111C A120G A145C C169A U176A, 0.00969. In the case of C82A A111C A120G A145C C169A U176C, the reverse-splicing fitness came to 0.00724. Turning to C82A A111C A120G A145C C169A U176G, the reverse-splicing fitness worked out at 0.0044. To C82A A111C A120C A145U C150A C169U U176G belongs 0.00918; to C82A A111C A120C A145U C150A C169U U176A, 0.014. Under C82A A111C A120C A145U C150A C169U U176C stands 0.0143.

Turning to C82A A111C A120G A145C C150G C169U U176A, the reverse-splicing fitness worked out at 0.0089. Under C82A A111C A120G A145C C150G C169U U176C stands 0.0101.

As for C82A A111C A120G A145C C150G C169U U176G, the reverse-splicing fitness was 0.00551. To C82A A111C A120C U176G belongs 0.00722. To C82A A111C A120C U176A belongs 0.0134; to C82A A111C A120C U176C, 0.0216. Under C82A A111C A120C A145U C169U U176A stands 0.0155; under C82A A111C A120C A145U C169U U176C, 0.0141. C82A A111C A120C A145U C169U U176G: the reverse-splicing fitness amounted to 0.00589. As for C82A A111C A120C A145U C150A U176C, the reverse-splicing fitness is 0.0164. Under C82A A111C A120C A145U C150A U176A stands 0.0112; under C82A A111C A120C A145U C150A U176G, 0.00638.
